Source: US20210130827A1
Where “and” joins values, the source holds several entries; their conditions need not be identical. Equal values may be shown once.

Biological target: catalytically deactivated LbCpf1 (dLbCpf1)(dLbCas12a) with eight copies of GCN4 epitopes fused to the C-terminus (Lachnospiraceae bacterium)
Test: cell-based or functional assay

## antibody targeted toward the GCN4 epitope fused to hAPOBEC3A (scFv)
  C to T editing efficiency compared to unfused dCpf1 (NGS, HEK293T cells): < 5 fold
  C to T editing rate (NGS, HEK293T cells, not sorted for transfected cells) (% of treated cell population): 7 and 19
